Results reported in paper PMC11147780, “Vaccination induces broadly neutralizing antibody precursors to HIV gp41” (Nature Immunology, 2024).
Positions count from the first letter of the chain named.

Key:
[1] = biological target: T1, T117v2 epitope scaffold (designed scaffold T117v2 with HIV-1 …); experiment: SPR; values told in the text, methods or extended data without a main figure; instrument not told (Carterra LSA, ProteOn XPR36 with GLC chip or Biacore 4000 with CM5 chip); details: both partners purified
T1 chain: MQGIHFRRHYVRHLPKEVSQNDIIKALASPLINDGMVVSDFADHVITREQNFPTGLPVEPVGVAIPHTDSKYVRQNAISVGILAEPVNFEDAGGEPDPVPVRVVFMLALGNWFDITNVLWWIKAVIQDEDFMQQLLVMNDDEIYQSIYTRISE

[2] = biological target: T2, 10E8-B1 epitope scaffold (synthetic construct (resurfaced …)); experiment: SPR; Carterra LSA, HC30M or CMDP chips; antibodies as ligands held by an amine-coupled capture antibody, scaffolds as analytes (monovalent Kd); 1x HBS-EP+ pH 7.4 with 1 mg/ml bovine serum albumin; Langmuir model; values of the main text figures; details: both partners purified
T2 chain: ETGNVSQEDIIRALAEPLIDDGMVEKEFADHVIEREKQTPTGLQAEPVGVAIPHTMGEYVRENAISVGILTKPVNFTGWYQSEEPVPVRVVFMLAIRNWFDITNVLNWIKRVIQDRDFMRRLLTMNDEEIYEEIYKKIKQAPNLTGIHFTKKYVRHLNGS

[3] = biological target: T3, 10E8-GT4 (synthetic construct (T117-based HIV-1 …)); experiment: SPR; ProteOn XPR36, GLC sensor chip; antibody as ligand, monomeric scaffold as analyte; monovalent KD; details: both partners purified
T3 construct: source: FreeStyle 293F, purified (IMAC, SEC)
T3 chain: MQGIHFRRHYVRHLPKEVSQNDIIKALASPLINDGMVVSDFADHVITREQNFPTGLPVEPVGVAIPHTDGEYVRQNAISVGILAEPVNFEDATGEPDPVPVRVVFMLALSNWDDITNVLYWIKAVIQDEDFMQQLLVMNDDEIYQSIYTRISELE

[4] = biological target: T4, T117v2 (designed scaffold T117v2 with HIV-1 …); experiment: as above; details: both partners purified
T4 construct: also called T117v2 scaffold; source: FreeStyle 293F, purified (IMAC, SEC)
T4 chain: T1 chain

[5] = biological target: T5, 10E8-GT10.1 epitope scaffold (synthetic construct, circularly …, N-linked glycosylation sites added (positions not given)); experiment: SPR; Carterra LSA, HC30M or CMDP chips; antibodies as ligands held by an amine-coupled capture antibody, scaffolds as analytes (monovalent Kd); 1x HBS-EP+ pH 7.4 with 1 mg/ml bovine serum albumin; Langmuir model; values of the main text figures; details: both partners purified
T5 chain: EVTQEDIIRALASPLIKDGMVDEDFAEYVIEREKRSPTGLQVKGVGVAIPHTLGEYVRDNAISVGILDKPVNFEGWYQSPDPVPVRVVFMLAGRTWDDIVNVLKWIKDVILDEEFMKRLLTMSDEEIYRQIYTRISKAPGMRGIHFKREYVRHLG

[6] = biological target: T6, 10E8-GT12 epitope scaffold (synthetic construct (HIV-1 MPER graft …, N-linked glycosylation sites added (positions not given)))
T6 chain: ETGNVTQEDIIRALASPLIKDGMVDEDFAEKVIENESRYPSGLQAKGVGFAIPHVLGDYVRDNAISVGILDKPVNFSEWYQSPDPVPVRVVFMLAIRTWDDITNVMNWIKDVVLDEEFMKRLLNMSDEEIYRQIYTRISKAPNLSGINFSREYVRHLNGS

[7] = biological target: T7, 10E8-GT10.2 epitope scaffold (designed scaffold 10E8-GT10.2 with …, N-linked glycosylation sites added (positions not given)); experiment: SPR; values told in the text, methods or extended data without a main figure; instrument not told (Carterra LSA, ProteOn XPR36 with GLC chip or Biacore 4000 with CM5 chip); details: both partners purified
T7 chain: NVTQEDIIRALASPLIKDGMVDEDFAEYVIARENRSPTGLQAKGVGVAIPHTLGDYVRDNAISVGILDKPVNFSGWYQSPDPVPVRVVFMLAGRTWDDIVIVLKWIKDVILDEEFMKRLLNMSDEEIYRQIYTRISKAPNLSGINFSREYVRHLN

B1: mature 10E8 broadly neutralizing antibody (antibody, V domains shown)
VH: EVQLVESGGGLVKPGGSLRLSCSASGFDFDNAWMTWVRQPPGKGLEWVGRITGPGEGWSVDYAAPVEGRFTISRLNSINFLYLEMNNLRMEDSGLYFCARTGKYYDFWSGYPPGEEYFQDWGRGTLVTVSS
VL: SYELTQETGVSVALGRTVTITCRGDSLRSHYASWYQKKPGQAPILLFYGKNNRPSGVPDRFSGSASGNRASLTISGAQAEDDAEYYCSSRDKSGSRLSVFGGGTKLTVL
notes: also called 10E8 bnAb; source: FreeStyle 293F cells or ExpiCHO (high-throughput), purified (protein A)
Work on B1 yielded a Kd [1] of 0.39 nM and a Kd [2] of 0.08 nM.

B2: 10E8 (antibody, V domains shown)
VH: B1 VH
VL: B1 VL
notes: also called mature 10E8; 10E8 bnAb; source: FreeStyle 293F or ExpiCHO, purified (protein A)
B2 gave a Kd [3] of 9.5 nM and a Kd [4] of 0.94 nM.

B3: 10E8 unmutated common ancestor antibody (antibody, V domains shown)
VH: not shown
VL: SSELTQDPAVSVALGQTVRITCQGDSLRSYYASWYQQKPGQAPVLVIYGKNNRPSGIPDRFSGSSSGNTASLTITGAQAEDEADYYCNSRDSSGNHLVVFGGGTKLTVL
notes: also called 10E8 UCA; proposed 10E8 UCA; source: FreeStyle 293F cells or ExpiCHO (high-throughput), purified (protein A)
Work on B3 yielded a Kd [5] of roughly 600 nM.

B4: 10E8-iGL2 (antibody, V domains shown)
VH: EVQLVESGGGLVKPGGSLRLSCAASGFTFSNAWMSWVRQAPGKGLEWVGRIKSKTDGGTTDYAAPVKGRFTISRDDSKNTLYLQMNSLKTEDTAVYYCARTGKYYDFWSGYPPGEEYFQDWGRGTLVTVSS
VL: B3 VL with V98W
notes: source: FreeStyle 293F or ExpiCHO, purified (protein A)
Work on B4 yielded a Kd [4] of 17000 nM, a koff [4] of 0.11 s⁻¹ and a kon [4] of 6600 M⁻¹ s⁻¹.

B5: MPER_HuGL-106 (MPER-102) (antibody, V domains shown)
VH: EVQLVESGGGLVQPGRSLRLSCTASGFTFGDYAMSWVRQAPGKGLEWVGFIRSKAYGGTTEYAASVKGRFTISRDDSKSIAYLQMNSLKTEDTAVYYCTRDKVGYDFWSGDYYYYGMDVWGQGTTVTVSS
VL: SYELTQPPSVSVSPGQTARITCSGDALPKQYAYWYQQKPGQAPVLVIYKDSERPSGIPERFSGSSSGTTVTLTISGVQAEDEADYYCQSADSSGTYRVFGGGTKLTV
B5 gave a Kd [6] of 1140 nM.

B6: NHP W3-01 Fab (Fab, V domains shown)
VH: QVQLQESGPGLVKPSETLSLTCAVSGGSFSSDWWGWIRQPPGKGLEWIGTIYGSGGSNYLNPSLKSRVTLSVDTSKNQFSLRLSSVTAADTAVYYCARGSGRYNIWTGYYTPFDAFDFWGRGLRVTVSS
VL: SYELTQPPSMSVSPGQTARITCGGDNLGSKYVHWYQQKPAQAPVLVIYYDSDRPSGIPERFSGSKSGNTATLTISGVEAGDEADYYCQVWDSSSDHYIFGAGTRLTVL
notes: also called 10E8-GT10.2-induced macaque antibody with a YxIW motif from week 3
B6 was tested, and the Kd [7] was 4.8 nM.
